Laboratory results taken from paper PMC8766471, “Mutations affecting the N-terminal domains of SHANK3 point to different pathomechanisms in neurodevelopmental disorders” (Scientific Reports, 2022).

B1: Shank3 Ank repeats (residues 99-348), WT, recombinant (domain or fragment, rat, UniProt Q9JLU4 99-348, looked up)
chain: QNLIDDKQFAKLHTKANLKKFMDYVQLHSTDKVARLLDKGLDPNFHDPDSGECPLSLAAQLDNATDLLKVLRNGGAHLDFRTRDGLTAVHCATRQRNAGALTTLLDLGASPDYKDSRGLTPLYHSALGGGDALCCELLLHDHAQLGTTDENGWQEIHQACRFGHVQHLEHLLFYGANMGAQNASGNTALHICALYNQESCARVLLFRGANKDVRNYNSQTAFQVAIIAGNFELAEVIKTHKDSDVVPFRE
notes: Shank3, rat, Ank repeats, residues 99-348; expressed from pET-SUMO; also called WT Ank; WT Ank domain; source: E. coli BL21*(DE3), purified (HisTrap HP, SUMO protease, reverse HisTrap pass)
B2: isolated SPN domain of Shank3, recombinant (domain or fragment, rat, UniProt Q9JLU4 1-92, looked up)
chain: MDGPGASAVVVRVGIPDLQQTKCLRLDPTAPVWAAKQRVLCALNHSLQDALNYGLFQPPSRGRAGKFLDEERLLQDYPPNLDTPLPYLEFRY
notes: Shank3 SPN domain, isolated; the methods of expression list only residues 1-348 and 99-348; also called WT SPN

Columns and labels:
[1] = target: B2; assay: ITC; 25 °C; 20 mM Tris pH 7.5, 1 M NaCl, 0.5 mM TCEP; 25 µM SPN in the cell, 400 µM WT Ank or P141A Ank in the syringe; single-site-binding model; conditions: both partners purified
[2] = target: B1; assay: as above; conditions: both partners purified

dH [1] [kJ/mol] | Kd [2] [µM] | Binder
-15.5 |  | B1
 | 19 | B2
